Data reported in US20190078065A1, “MODIFIED DNA POLYMERASES” (SIGMA-ALDRICH CO. LLC, priority 2017, published 2019).
Each block holds one molecule with its values, some of them ahead of it.

How the values were obtained:
Type in all cases: biochemical
[1] = tested on: 3′-O-carbamate or ester blocked nucleotides; experiment: incorporation of 3′-O-blocked nucleotides, mutant vs. wild type polymerase, quantified by densitometry; conditions: for rates of incorporation of 3′-O-carbamate or ester blocked nucleotides as compared to wild type (WT) Hs PolM: densitometry
Text: The incorporation of 3′-O-carbamate or ester blocked nucleotides by the PolM-loop1 chimera, Hs PolM-Lp1, or the truncated PolM-loop1 chimera, Hs tPolM-Lp1 was compared to that of wild type Hs PolM. The amount of incorporation was quantified by densitometry.

[2] = tested on: 3′-O-carbamate or ester blocked nucleotides; experiment: template-free DNA synthesis reaction: incorporation of 3′-O-blocked nucleotides; conditions: template-independent, dNTP1, 2, 3, 5, 6 of Table 2; FIG. 5
Text: The ability of the PolM-loop1 chimera, Hs PolM-Lp1, to incorporate 3′-O-blocked nucleotides was examined in a template-free DNA synthesis reaction.

[3] = tested on: 3′-O-blocked adenosine 5′-triphosphates; experiment: incorporation of 3′-O-blocked adenosine, comparison with Bt TdT

rates of incorporation of 3′-O-carbamate or ester blocked nucleotides as compared to wild type (WT) Hs PolM [1]: significantly increased
B1: Hs PolM-Lp1: Homo sapiens PolM, Loop 1 domain swap (protein)
chain: MLPKRRRARVGSPSGDAASSTPPSTRFPGVAIYLVEPRMGRSRRAFLTGLARSKGFRVLDACSSEATHVVMEETSAEEAVSWQERRMAAAPPGCTPPALLDISWLTESLGAGQPVPVECRHRLEVAGPRKGPLSPAWMPAYACQRPTPLTHHNTGLSEALEILAEAAGFEGSEGRLLTFCRAASVLKALPSPVTTLSQLQGLPHFGEHSSRVVQELLEHGVCEEVERVRRSERYQTMKLFTQIFGVGVKTADRWYREGLRTLDDLREQPQKLTQQQKAGLQHHQDLSTPVLRSDVDALQQVVEEAVGQALPGATVTLTGGFRRGKLQGHDVDFLITHPKEGQEAGLLPRVMCRLQDQGLILYHQHQESTFEKLRLPSRKVDALDHFERSFCIFRLPQPPGAAVGGSTRPCPSWKAVRVDLVVAPVSQFPFALLGWTGSKLFQRELRRFSRKEKGLWLNSHGLFDPEQKTFFQAASEEDIFRHLGLEYLPPEQRNA
incorporation of 3′-O-carbamate or ester blocked nucleotides [2]: successfully incorporated

Fold increase Hs tPolM-Lp1 vs. Hs PolM-Lp1 ([1]; Blocking group 1): 2.2 Fold
Fold increase Hs tPolM-Lp1 vs. Hs PolM-Lp1 ([1]; Blocking group 2): 2.1 Fold
Fold increase Hs tPolM-Lp1 vs. Hs PolM-Lp1 ([1]; Blocking group 3): 2.0 Fold
Fold increase Hs tPolM-Lp1 vs. Hs PolM-Lp1 ([1]; Blocking group 5): 1.3 Fold
Fold increase Hs tPolM-Lp1 vs. Hs PolM-Lp1 ([1]; Blocking group 6 (artificial base-5SICS)): 3.0 Fold
Fold increase Hs tPolM-Lp1 vs. Hs PolM-Lp1 ([1]; Blocking group 6 (standard base)): 2.0 Fold
rates of incorporation of 3′-O-carbamate or ester blocked nucleotides as compared to wild type (WT) Hs PolM [1]: significantly increased
B2: Hs tPolM-Lp1: Homo sapiens PolM, Loop 1 domain swap and N-terminal truncation (Δ 1-108) (protein)
chain: MLGAGQPVPVECRHRLEVAGPRKGPLSPAWMPAYACQRPTPLTHHNTGLSEALEILAEAAGFEGSEGRLLTFCRAASVLKALPSPVTTLSQLQGLPHFGEHSSRVVQELLEHGVCEEVERVRRSERYQTMKLFTQIFGVGVKTADRWYREGLRTLDDLREQPQKLTQQQKAGLQHHQDLSTPVLRSDVDALQQVVEEAVGQALPGATVTLTGGFRRGKLQGHDVDFLITHPKEGQEAGLLPRVMCRLQDQGLILYHQHQESTFEKLRLPSRKVDALDHFERSFCIFRLPQPPGAAVGGSTRPCPSWKAVRVDLVVAPVSQFPFALLGWTGSKLFQRELRRFSRKEKGLWLNSHGLFDPEQKTFFQAASEEDIFRHLGLEYLPPEQRNA
increase in incorporation relative to Bt TdT [3]: 2.7 fold
